Test results as given in article doi:10.1101/243014, “RNA-binding proteins with mixed charge domains self-assemble and aggregate in Alzheimer’s Disease” (bioRxiv, 2018).
Several values for one entry are separate records, joined by “and”; a condition that tells them apart may be missing. Equal entries are not always repeated.

Target: the molecule itself
Test: native gel or EMSA; blue native PAGE (3-12% NativePAGE Bis-Tris) of 0.8 ug purified protein in loading buffer with 50 mM TCEP, 30 min at room temperature; Coomassie and western blot with Myc antibodies

Row | Protein | stoichiometry N
1 | LC1 domain (residues 231–308) of rU1-70K (domain or fragment, UniProt P08621 231-308, looked up, The GST carrier was kept in BN-PAGE (~65 kDa on SDS-PAGE); also called LC1 alone; mixed charge LC1 domain; source: HEK293, transfected, in lysate) RDRDRDRERERRERSRERDKERERRRSRSRDRRRRSRSRDKEERRRSRERSKDKDRDRKRRSSRSRERARRERERKEE | 2 and 3 and 4
2 | N-terminal domain (residues 1–99) of rU1-70K (domain or fragment, UniProt P08621 1-99, looked up, U1-70K residues 1-99 (N-terminus); The GST carrier was kept in BN-PAGE (~65 kDa on SDS-PAGE); also called N-terminus (1–99 residues) alone; source: HEK293, transfected, in lysate) MTQFLPPNLLALFAPRDPIPYLPPLEKLPHEKHHNQPYCGIAPYIREFEDPRDAPPPTRAETREERMERKRREKIERRQQEVETELKMWDPHNDPNAQG | 2
